Experimental data reported in paper PMC3176292, “Mutations in Protein-Binding Hot-Spots on the Hub Protein Smad3 Differentially Affect Its Protein Interactions and Smad3-Regulated Gene Expression” (PLoS ONE, 2011).
Each block holds one binder with its values, some of them ahead of it.

Tests used:
Conditions in all cases: partners not purified
[1] = target: T1, Flag-Smad4, full length (UniProt Q13485 1-552); experiment: co-IP; LUMIER: Renilla luciferase-Smad3 and Flag-tagged partner co-expressed with constitutively active Alk5 in HEK-293; Flag protein captured from cleared lysate (TNE: 10 mM Tris-HCl pH 7.8, 150 mM NaCl, 1 mM EDTA, 1% Igepal CA-630) on anti-Flag 96-well plates, 2 h at 4 °C; co-precipitated Renilla luciferase activity, TrxGA background subtracted, percent of wild-type Smad3
T1 construct: Smad4; plasmid pCMV5-Flag-Smad4 (from J. Massagué); also called Smad4 FL; source: HEK-293, transfected, in lysate
T1 sequence (looked up): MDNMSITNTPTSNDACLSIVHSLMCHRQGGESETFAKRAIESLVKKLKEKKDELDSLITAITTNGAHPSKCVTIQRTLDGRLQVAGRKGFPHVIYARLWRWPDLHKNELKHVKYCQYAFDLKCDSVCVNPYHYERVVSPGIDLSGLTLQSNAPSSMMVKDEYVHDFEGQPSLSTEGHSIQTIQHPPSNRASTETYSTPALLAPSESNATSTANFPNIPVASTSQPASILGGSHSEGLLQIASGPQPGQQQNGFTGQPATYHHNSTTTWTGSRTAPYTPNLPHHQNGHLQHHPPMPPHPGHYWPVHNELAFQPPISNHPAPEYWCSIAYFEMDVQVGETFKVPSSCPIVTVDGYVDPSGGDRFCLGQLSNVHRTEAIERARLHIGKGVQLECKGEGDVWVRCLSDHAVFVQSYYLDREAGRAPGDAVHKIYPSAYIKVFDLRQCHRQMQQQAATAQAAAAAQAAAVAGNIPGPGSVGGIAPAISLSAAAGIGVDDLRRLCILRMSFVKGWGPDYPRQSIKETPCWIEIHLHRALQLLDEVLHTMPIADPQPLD

[2] = target: T2, SARA Smad-binding domain (amino acids 665–721) on the 3xFlag-thioredoxin scaffold (UniProt O95405 767-823); experiment: as above
T2 construct: SARA, amino acids 665–721; cloned into the unique RsrII site of pCI-3xFLAG-Trx; also called SARA aa665–721; TrxSARA; source: HEK-293, transfected, in lysate
T2 sequence (looked up): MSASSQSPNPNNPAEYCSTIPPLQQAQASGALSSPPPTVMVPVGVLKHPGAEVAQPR

[3] = target: T3, Smurf2 Smad-binding domain (amino acids 252–330) on the Flag-thioredoxin scaffold (UniProt Q9HAU4 252-330); experiment: as above
T3 construct: Smurf2, amino acids 252–330; also called Smurf2 aa252–330; TrxSmurf2; source: HEK-293, transfected, in lysate

[4] = target: T4, Ski Smad-binding domain (amino acids 2–56) on the 3xFlag-thioredoxin scaffold (UniProt P12755 2-56); experiment: as above
T4 construct: Ski, amino acids 2–56; cloned into the unique RsrII site of pCI-3xFLAG-Trx; also called Ski aa2–56; TrxSki; source: HEK-293, transfected, in lysate
T4 sequence (looked up): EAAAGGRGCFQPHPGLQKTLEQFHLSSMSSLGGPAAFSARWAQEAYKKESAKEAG

[5] = target: T2, SARA Smad-binding domain (amino acids …); experiment: co-IP; LUMIER as a1 but without co-expression of the activated Alk5 kinase (Smad3 not phosphorylated); percent of phosphorylated wild-type Smad3

T3 sequence (Q9HAU4 252-330): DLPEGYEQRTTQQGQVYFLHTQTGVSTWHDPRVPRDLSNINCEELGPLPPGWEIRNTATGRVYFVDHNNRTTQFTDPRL

percent binding relative to wild-type Smad3 [1]: 132%
percent binding relative to wild-type Smad3 [2]: 61%
percent binding relative to wild-type Smad3 [3]: 86%
percent binding relative to wild-type Smad3 [4]: 4%
B1: Renilla luciferase-Smad3 QPSMT/SE mutant (residues 252–256 and 266–267 changed to the Smad1 equivalents STSVL/NKN) (natural protein, UniProt P84022 1-425, looked up)
chain: MSSILPFTPPIVKRLLGWKKGEQNGQEEKWCEKAVKSLVKKLKKTGQLDELEKAITTQNVNTKCITIPRSLDGRLQVSHRKGLPHVIYCRLWRWPDLHSHHELRAMELCEFAFNMKKDEVCVNPYHYQRVETPVLPPVLVPRHTEIPAEFPPLDDYSHSIPENTNFPAGIEPQSNIPETPPPGYLSEDGETSDHQMNHSMDAGSPNLSPNPMSPAHNNLDLQPVTYCEPAFWCSISYYELNQRVGETFHASSTSVLVDGFTDPSNNKNRFCLGLLSNVNRNAAVELTRRHIGRGVRLYYIGGEVFAECLSDSAIFVQSPNCNQRYGWHPATVCKIPPGCNLKIFNNQEFAALLAQSVNQGFEAVYQLTRMCTIRMSFVKGWGAEYRRQTVTSTPCWIELHLNGPLQWLDKVLTQMGSPSIRCSSVS
notes: Smad3 with two stretches replaced by those of Smad1; source plasmid pcDNA3-Flag-Smad3(STSVL/NKN) from K. Miyazono; assayed as Renilla fusion; also called Smad3(STSVL/NKN); Smad1/3 chimeric protein; source: HEK-293, transfected together with constitutively active Alk5, in lysate

percent binding relative to wild-type Smad3 [2]: 100%
percent binding relative to wild-type Smad3 [3]: 100%
percent binding relative to wild-type Smad3 [4]: 100%
B2: Renilla luciferase-Smad3 wild type, co-expressed with constitutively active Alk5 (phosphorylated Smad3) (natural protein, UniProt P84022 1-425, looked up)
chain: MSSILPFTPPIVKRLLGWKKGEQNGQEEKWCEKAVKSLVKKLKKTGQLDELEKAITTQNVNTKCITIPRSLDGRLQVSHRKGLPHVIYCRLWRWPDLHSHHELRAMELCEFAFNMKKDEVCVNPYHYQRVETPVLPPVLVPRHTEIPAEFPPLDDYSHSIPENTNFPAGIEPQSNIPETPPPGYLSEDGETSDHQMNHSMDAGSPNLSPNPMSPAHNNLDLQPVTYCEPAFWCSISYYELNQRVGETFHASQPSMTVDGFTDPSNSERFCLGLLSNVNRNAAVELTRRHIGRGVRLYYIGGEVFAECLSDSAIFVQSPNCNQRYGWHPATVCKIPPGCNLKIFNNQEFAALLAQSVNQGFEAVYQLTRMCTIRMSFVKGWGAEYRRQTVTSTPCWIELHLNGPLQWLDKVLTQMGSPSIRCSSVS
modifications: phosphorylated by the co-expressed activated Alk5 kinase (sites not given)
notes: Smad3; plasmid pCMV5-hRLuc-Smad3 (from J. Wrana); also called Smad3 WT+Alk5; Renilla-Smad3; source: HEK-293, transfected together with constitutively active Alk5, in lysate

percent binding relative to wild-type Smad3 [5]: 78%
B3: Renilla luciferase-Smad3 wild type, without Alk5 (not phosphorylated) (natural protein, UniProt P84022 1-425, looked up)
chain: B2 chain
notes: Smad3; also called Smad3 WT, No Alk5; source: HEK-293, transfected without Alk5, in lysate
